± gives the uncertainty stated by the source.
Experiment: amyloid nucleation score (Sup35N fusion, yeast selection) (log enrichment); library NNK3; higher = more nucleation; inactive = no reads after selection
Summary of the method: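 The nucleation score equals the log enrichment of output over input reads from DiMSum, centred on the mode score of non-aggregating sequences. It was computed only for sequences with 100 or more input reads. The reads came from Illumina sequencing of plasmid inserts from psi-negative yeast expressing Sup35N fused to peptides of 20 random codons, induced with 100 μM copper sulfate for 24 hours and grown 7 days at 30°C without adenine and uracil.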

Row | Substance | amyloid nucleation score
1 | MWSHLVCCNRQPENLYG | 1.32 ± 0.16
2 | CHLYLPSQTSQH | inactive
3 | YARYMYYATNKINNWVVLKP | inactive
4 | FSIRDSTTLKVPEECLSTWI | inactive
5 | SLTYGRRWLFDWRSTMKGKA | inactive
6 | SGKILQRPLSWLSCVMQVES | inactive
7 | YDRVSMGRFIKR | inactive
8 | RQSALRWFSNDNWGICKAHD | -0.06 ± 0.87
9 | LNSTVSGKFMLL | 0.078 ± 0.66
10 | EVPLDVAVKGRLW | inactive
11 | LRSLLNQVMSYSMYILYNSQ | inactive
12 | IVRFNSLHYFWETDKTI | inactive
13 | RDSQRSVRVTAIDG | inactive
14 | EKSCCCSVKI | inactive
15 | IPRVAWQSYILTSQ | inactive
16 | IRVSN | inactive
17 | ASILEFPRSTKSTSLGRSGR | inactive
18 | INVPLALLSYGV | inactive
19 | LVDLSRSISKSPMQKYRF | inactive
20 | CHASRSGIKLLLSIAAWTCI | inactive
21 | FFYRVSVSLSRAKI | inactive
22 | NNSGLSFFSNLGWVLHGDLV | inactive
23 | LNIIVDGLAMDVYDEALGSN | inactive

Row | Substance | amyloid nucleation score
24 | SLNLWGLRSKVPDVWRMLMR | inactive
25 | SAQNYTL | inactive
26 | EISTVLNLHVRRIAGRFVMK | inactive
27 | STRFMVIFDGISSVIGAIYG | inactive
28 | ILVVGALDLLCGVLTEYSCQ | 1.1 ± 0.1
29 | CSKIFGRERMFYRVDMVS | inactive
30 | NCFMSLASSNTR | inactive
31 | YRAYVYEDTFWWAWYQFILL | inactive
32 | HSAYVVKWSSRTTPKFFSLW | inactive
33 | RLILDNHDTSFCLIHGSRMI | inactive
34 | WTMSLLQFDLDTSTSTLTMV | inactive
35 | RIPVSWFNWCTWVYVL | inactive
36 | SYVWYRNGM | inactive
37 | GMDCNKIRLASSWVYYLTSE | inactive
38 | ASRSMTGSLCLFAFMV | inactive
39 | YTALL | inactive
40 | DCGATSLKTMASGLRMKRTS | inactive
41 | KMACTCAESTVIIS | inactive
42 | FGRGCHRSMTIGDLVFLLIT | inactive
43 | YYQGAQPLNPGAR | inactive
44 | KDSRSCLSFL | inactive
45 | YLYRNRS | inactive
46 | GGNLFSSVS | inactive

Row | Substance | amyloid nucleation score
47 | QYHNQYHMIKRLYAFRARMG | inactive
48 | LFNYLFLVP | inactive
49 | GSALCHCLCNMEVMSYFVAF | inactive
50 | GIVTLSA | inactive
51 | YASVEIFHWTFSGILYSWGH | inactive
52 | QCYCGLTPTANLDPLMRIWD | inactive
53 | FDFKAYESCCSLLRYLMDPW | inactive
54 | CISQVVVGSTHTAIGARAFA | inactive
55 | THTTAS | inactive
56 | IQYRGYGYMNSIWYGVERFF | 0.626 ± 0.28
57 | ITNIFFFHSTLLRSCRASGN | 2.47 ± 0.063
58 | MDEGIVKTELFYRWRISRLG | inactive
59 | GMAEFALQWIRMIGRL | 0.214 ± 0.45
60 | GVGATATTFWGVRWVRRSTN | inactive
61 | YSGWTPKLAVH | inactive
62 | FCEFWYLNSRKEATELRP | inactive
63 | SRFKMICSRDRLNNRSVVLG | inactive
64 | LIFGYPVGKFTMMGLTSMWS | inactive
65 | NAQGVSKWEDTRSNLNRLVV | inactive
66 | FECKLNRGWSKQARWLNKLY | 0.177 ± 0.38
67 | SSWPN | inactive
68 | RYPSDSIGFISLDTGGCGVR | inactive
69 | AYMYCVMTGSWVVKIRPGTR | inactive

Row | Substance | amyloid nucleation score
70 | DETVMFSFKFIVKSVVVDPR | inactive
71 | SDKFMLRHHLCWDARSCFQV | 0.348 ± 0.75
72 | TTLMMGTEPGLDTRLSSLCY | inactive
73 | YSKSLCVFKSICIELDF | 2.08 ± 0.062
74 | SVIVKAKASTVGDMQAKCRI | 1.1 ± 0.15
75 | SNGCKMYDKHVLYW | inactive
76 | FLLSVMRELSKYYYIIFSTS | inactive
77 | VSIKSRLRCLSVVQDNSRCV | inactive
78 | SSTRIMNISVSRWSEMDKPD | inactive
79 | FMKEVSGRQDLLRPIMIHNA | inactive
80 | GNVQFCRFFFDMSSLHDIMT | inactive
81 | KFTYSLKLCADFGFLSTWKV | inactive
82 | MSFVSSRGVNKWQVETGLLE | inactive
83 | RDGFN | inactive
84 | PDVFYILVTALWDVRNSNSF | inactive
85 | FCCHYSKLFRR | 0.641 ± 0.41
86 | FELRVV | inactive
87 | RPFSNAGYAFNHGFFV | inactive
88 | KAPVVWYDMEARQKCVRGGG | inactive
89 | YFAVMGGITLHLFAVIRSCL | inactive
90 | TNINSYGLKIESGGWNQLN | inactive
91 | GSFGPIFQWNTIGALGFFG | 2.19 ± 0.059
92 | HNLTNLVSILGNAS | inactive

Row | Substance | amyloid nucleation score
93 | LGDDVFSLAFGDNFKDHKFH | inactive
94 | FYDAWRIFLSYFRLSLLTNV | inactive
95 | LKVLVD | inactive
96 | YWKRAGPQFGVPDSWTPSGP | inactive
97 | PSHPVPLFHE | inactive
98 | QQYSTAYYIHGFTKMVGVVA | 0.298 ± 0.19
99 | TVFMYRRVFSIRWG | inactive
100 | GKKMKEGCSSNISIVELSRN | inactive
101 | RISSCSYHRVRVHVDTWAHV | inactive
102 | RGLRTKVGMSVRNCEYRYVM | -0.455 ± 1.1
103 | ADIDLVGVDCPWCGGLESFP | -0.342 ± 1.2
104 | YGFMCLVCIGTCDCKRSWQG | 2.28 ± 0.086
105 | VRCVVGITVFGIHERVTSER | 0.169 ± 0.61
106 | IHNGKDTLAVVWYGFLIMFW | inactive
107 | GPFVSFYFVFTRFNQTSLGF | 1.57 ± 0.066
108 | SIYFWCS | 2.09 ± 0.065
109 | SRFRGAI | inactive
110 | VRTVFCNIFFEFRGGSRNWA | 1.79 ± 0.11
111 | RPAVLGPAFRYSSLAP | inactive
112 | IYGGCIFYRMSQCARMDTGE | inactive
113 | LVLAVVMTFRLRIRLSNLSR | inactive
114 | LNSGIS | 0.103 ± 0.24
115 | ANSNVGSLF | inactive

Row | Substance | amyloid nucleation score
116 | ELSACCYAMSWMVDCVRASL | 1.34 ± 0.1
117 | KNERVWVSRWETFKLHCSRV | inactive
118 | RLRSNDSDLNRIAAIKVRGI | inactive
119 | LKIWGRFITGETV | inactive
120 | PFGVKSMLAVYTHYVFGATV | inactive
121 | IVSTWG | inactive
122 | NSQGQNYILTFYR | 1.82 ± 0.088
123 | LYTDDAPGDVFLFNAFRVFH | inactive
124 | ESRKWAAEGPSFICTCLLSL | inactive
125 | AWSLVGMHAVNNFHLKQEFL | inactive
126 | VAFYVTHGAIVYFSMGCAGI | 1.63 ± 0.11
127 | SRSLIRINWFRGKKLCYGFE | inactive
128 | VPSNLGKPHMCRRSRDYFTA | inactive
129 | SSYSVVFEQ | inactive
130 | RLGLSAMSFCLCDSTSIATY | inactive
131 | WIRIIQLNVSERGNRVGSYC | 0.37 ± 0.5
132 | HSSVDIQRFCIFYINQCVPK | 2.45 ± 0.072
133 | YKHVARLEP | inactive
134 | DSFNLSDSGWSTLYIRAWDG | inactive
135 | LCMAFNVIPQTSFLALKASC | inactive
136 | YPLRSGF | inactive
137 | SFNRISIFYVNWCTAMNFVY | 1.13 ± 0.093
138 | ASDTVTCFAYAVKGLRRASG | inactive

Row | Substance | amyloid nucleation score
139 | HTCVD | inactive
140 | EKLIIELLCTT | inactive
141 | YPFLSIGLYQCRS | inactive
142 | FLGGRTLTSLPE | inactive
143 | VLPENIILNFIQMSDNRFLL | 1.8 ± 0.072
144 | YNMNVFAGGCAMCMWISRLF | 2.61 ± 0.074
145 | YTWLAFRFSTSLHPRYSNIG | inactive
146 | VVSIYVGSYMSIICKS | 1.95 ± 0.059
147 | AGPVF | inactive
148 | FKGTTMIGRYINRVVMWAWS | inactive
149 | NVTTVFNKIPLPDSFNMRRW | 1.28 ± 0.084
150 | RLRRSGVKWVVLKGGTRTWQ | inactive
151 | YNANFFWYLADGIFDA | inactive
152 | HRIVTPPNDLWGVWASTV | inactive
153 | FLLERLSV | inactive
154 | CYSKYSS | inactive
155 | SSIHH | inactive
156 | YIITFGSMTCLVVTGNPAIV | -0.039 ± 0.66
157 | GLVVVT | inactive
158 | TVNQKPY | inactive
159 | ARWTMRAMLDWSIALSDHWV | inactive
160 | LETMN | inactive
